The text below walks through data of patent publication US20200165324A1 (INTERNATIONAL AIDS VACCINE INITIATIVE, published 2020).

One test deals with BG505 G472A. Description: ELISA, gp120 captured from lysed virions. On the technique in general: ELISA stands for enzyme-linked immunosorbent assay.
Test [1] addresses T1, JR-CSF gp120 captured from lysed virions (HIV isolate JR-CSF, UniProt P20871 32-503).
T1 construct: gp120 from NP40-lysed pseudovirus, captured by an anti-C5 gp120 antibody
Description: ELISA, gp120 captured from lysed virions.

The target of test [2] is BG505 N279A. Description: ELISA, gp120 captured from lysed virions.
For test [3], the target named is BG505 K282A. Briefly: ELISA, gp120 captured from lysed virions.
For another test, the target named is T2, Jo-1 (human, UniProt P12081 1-509, limits assumed).
T2 sequence (looked up): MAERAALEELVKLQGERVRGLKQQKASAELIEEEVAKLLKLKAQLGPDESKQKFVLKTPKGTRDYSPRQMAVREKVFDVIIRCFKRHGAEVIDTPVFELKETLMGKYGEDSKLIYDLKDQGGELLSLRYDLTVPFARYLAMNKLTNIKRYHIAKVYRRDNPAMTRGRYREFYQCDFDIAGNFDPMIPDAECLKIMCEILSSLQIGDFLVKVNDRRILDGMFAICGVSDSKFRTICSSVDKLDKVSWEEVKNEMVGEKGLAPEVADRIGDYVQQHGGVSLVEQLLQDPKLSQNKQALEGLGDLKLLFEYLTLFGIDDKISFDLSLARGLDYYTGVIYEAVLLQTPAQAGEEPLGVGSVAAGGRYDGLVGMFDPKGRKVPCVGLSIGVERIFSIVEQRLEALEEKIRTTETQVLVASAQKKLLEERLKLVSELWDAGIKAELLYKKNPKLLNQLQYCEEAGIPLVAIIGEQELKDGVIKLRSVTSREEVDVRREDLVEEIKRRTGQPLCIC
Description: single autoantigen ELISA (Aesku), cut-off of the manufacturer.

In another test the target is T3, centromere B (human, UniProt P07199 1-599).
T3 sequence (looked up): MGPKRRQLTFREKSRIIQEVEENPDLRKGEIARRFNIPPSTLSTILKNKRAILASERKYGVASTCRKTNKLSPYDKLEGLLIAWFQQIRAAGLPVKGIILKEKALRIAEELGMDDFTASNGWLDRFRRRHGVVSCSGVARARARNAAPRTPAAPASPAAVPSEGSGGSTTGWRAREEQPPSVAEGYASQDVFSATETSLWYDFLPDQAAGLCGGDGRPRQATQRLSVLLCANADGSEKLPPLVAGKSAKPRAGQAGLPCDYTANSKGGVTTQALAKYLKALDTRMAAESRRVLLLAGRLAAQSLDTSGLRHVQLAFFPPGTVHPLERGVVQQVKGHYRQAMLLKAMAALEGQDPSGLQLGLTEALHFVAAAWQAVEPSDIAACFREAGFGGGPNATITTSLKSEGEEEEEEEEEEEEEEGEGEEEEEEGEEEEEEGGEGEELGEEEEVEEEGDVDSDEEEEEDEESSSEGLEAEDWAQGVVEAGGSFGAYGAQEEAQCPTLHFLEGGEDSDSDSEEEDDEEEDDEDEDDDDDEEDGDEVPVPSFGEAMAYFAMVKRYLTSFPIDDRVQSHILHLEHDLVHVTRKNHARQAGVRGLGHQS
The test is described as above.

The target in the next test is T4, SS-B/La (human, UniProt P05455 1-408, limits assumed).
T4 sequence (looked up): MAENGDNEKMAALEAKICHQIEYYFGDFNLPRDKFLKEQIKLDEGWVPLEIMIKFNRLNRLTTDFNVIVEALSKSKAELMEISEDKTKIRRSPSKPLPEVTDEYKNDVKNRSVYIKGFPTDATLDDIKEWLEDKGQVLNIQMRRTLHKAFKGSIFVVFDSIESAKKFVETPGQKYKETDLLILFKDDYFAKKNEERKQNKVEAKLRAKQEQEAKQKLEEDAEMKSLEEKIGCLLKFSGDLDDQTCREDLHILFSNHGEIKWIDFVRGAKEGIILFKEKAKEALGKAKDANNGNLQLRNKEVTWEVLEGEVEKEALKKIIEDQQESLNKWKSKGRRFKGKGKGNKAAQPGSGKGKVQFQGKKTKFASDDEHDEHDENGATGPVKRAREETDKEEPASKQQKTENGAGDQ
The test is described as above.

The target in test [4] is T5, BG505 SOSIP.664 gp140 trimer (HIV isolate BG505).
T5 construct: Soluble Env trimer made in HEK293F cells with co-transfected furin (cleaved gp120 and gp41 ectodomain, disulfide-linked); His- and Avi-tagged (biotinylated) versions were also made; also called BG505 SOSIP trimer; BG505 SOSIP.664-His gp140
Briefly: complex used as bait in flow cytometry sorting. A general note: In flow cytometry, cells or beads pass a laser one at a time.

Test [5] deals with BG505 N279A. Briefly: cell-based or functional assay.
Test [6] deals with BG505 Env on BG505 pseudovirus (HIV isolate BG505). Briefly: cell-based or functional assay.
For test [7], the target named is JR-CSF Env on JR-CSF pseudovirus. Description: cell-based or functional assay.
Test [8] deals with BG505 K282A. Description: cell-based or functional assay.
Test [9] deals with T6, BG505 WT recombinant gp120 protein (HIV isolate BG505).
T6 construct: also called WT protein
Description: ELISA on recombinant gp120.

In test [10] the target is BG505 D368R recombinant gp120 protein. Description: ELISA on recombinant gp120.
For test [11], the target named is T5, BG505 SOSIP.664 gp140 trimer. Briefly: single particle negative stain electron microscopy.

Description for Jo-1: (§1) Single antigen ELISA assays for SSA/Ro, SS-B/La, Sm, ribonucleoprotein (RNP), Jo-1, double-stranded DNA, centromere B, and histones were purchased from Aesku Diagnostics (Oakland, Calif.). The 96 wells were separately coated with these eight cellular and nuclear antigens for the qualitative detection of mAbs reactivity. A cut-off calibrator was provided by the manufacturer. The negative control was diluted human serum.
Description for SS-B/La: as §1
Description for centromere B: as §1

B1: NC-Cow1 (antibody)
VH: QVQLRESGPSLMKPSQTLSLTCTVSGSSLNDKSVGWVRQAPGKALQWLGSVDTSGNTDYNPGLKSRLSITKDNSKSRISLTVTGMTTEDSATYYCITAHQKTNKKECPEDYTYNPRCPQQYGWSDCDCMGDRFGGYCRQDGCSNYIHRSTYEWYVSAWGQGLLVTVSS
VL: SYELTQPSSVSGSLGQRVSVTCSGSSSNVGNGYVSWYQLIPGSAPRTIIYGDTSRASGVPERFSGSRSGNTATLTISSLQAEDEADFFCASPDDSSSNAVFGSGTTLTVL
notes: detected with anti-human IgG; also called d238-P1B4_NC-Cow1; mature NC-Cow1 HC + mature NC-Cow1 LC
Regarding B1, the EC50 – broadly, the midpoint of the concentration-response curve – in the test with BG505 G472A worked out at 0.37 µg/mL; in [1] it was 0.075 µg/mL; with BG505 N279A [2], 0.11 µg/mL; in the test with BG505 K282A [3] it was 1.18 µg/mL. For the same molecule, the binding result with Jo-1 is “no binding (tested: 100 µg/ml)”; with centromere B it was “no binding (tested: 100 µg/ml)”; with SS-B/La, “no binding (tested: 100 µg/ml)”; in test [4], “binds”. In addition, the “IC50, pseudovirus neutralization” value with BG505 N279A [5] is 0.012 µg/mL; in [6] it was 0.006 µg/mL; in test [7], 0.821 µg/mL; in the test with BG505 K282A [8] it was 0.02 µg/mL. Also, the results for the “EC50 (read off the curve)” value in [9] and in [10] were roughly 0.06 µg/mL and roughly 0.04 µg/mL, respectively.

B2: NC-Cow1 Fab (Fab)
VH: QVQLRESGPSLMKPSQTLSLTCTVSGSSLNDKSVGWVRQAPGKALQWLGSVDTSGNTDYNPGLKSRLSITKDNSKSRISLTVTGMTTEDSATYYCITAHQKTNKKECPEDYTYNPRCPQQYGWSDCDCMGDRFGGYCRQDGCSNYIHRSTYEWYVSAWGQGLLVTVSS
VL: SYELTQPSSVSGSLGQRVSVTCSGSSSNVGNGYVSWYQLIPGSAPRTIIYGDTSRASGVPERFSGSRSGNTATLTISSLQAEDEADFFCASPDDSSSNAVFGSGTTLTVL
notes: Fab used for negative stain electron microscopy; also called cow Fab NC-Cow1
For B2, in test [11], the binding result is given as “binds”.

B3: NC-Cow2 Fab (Fab)
VH: KVQLRESGPSLVKPSQTLSLTCMVSGSSLSDKAVGWVRQAPGKALEWLGIISAGGNRGYNSGLRSRLTISKDNSKNEVSLRVRSVTTEDSATYFCGTVHQKTQRKPICPDGYSDDSTLRYYSRCSDRDCWRCTGTTYYDTCQCGTYTWIDTHELHVDAWGQGLLVTVSS
VL: QAVLNQPSSVSGSLGQRVSITCSGSSSNVGNGYVSWYQLIPGSAPRTLIYGDTSRASGVPDRFSGSRSGNTATLTISSLQAEDEADYFCASAEDSSSNAVFGSGTTLTVL
notes: Fab used for negative stain electron microscopy; also called cow Fab NC-Cow2
Take B3: in test [11], the binding result is on record as “binds”.
